Assay [1] concerns wild-type S. cerevisiae BY4741. The assay is described as follows: Growth of wild-type yeast in glyphosate. The assay is classed as cell-based, Saccharomyces cerevisiae. Conditions: 5 mM and 10 mM glyphosate. The source says:
Previous research has primarily focused on E. coli as a chassis for selecting improved EPSP synthases. The present example details the development of S. cerevisiae as a model eukaryotic system for glyphosate resistance, thus requiring synthetically addicting this cell to the expression and activity of EPSPS in an effort to create a growth-based selection scheme. Yeast have previously been reported to be resistant to glyphosate.

The test system of assay [2] is S. cerevisiae strain sKR-024. Kind of assay: Growth of synthetic yeast strain sKR-024 expressing EPSPS variants with or without glyphosate. Conditions: for glyphosate tolerance in synthetic yeast host: mutants isolated from directed evolution. Format: cell-based, Saccharomyces cerevisiae. The procedure: EPSPS variants were re-cloned into a clean p416-Core1p backbone and transformed into strain sKR-024 as described above. Colonies were then picked in triplicate into YSC-Ura-Leu and outgrown for 2 days at 30° C. Cultures were then diluted back to OD 0.001 in yeast minimal media (YMM) containing varying amounts of glyphosate as indicated. Growth rate measurements were then obtained using an Infinite M200 PRO microplate reader (Tecan, Männedorf, Switzerland) with incubation at 30° C. for 72-120 hours depending on growth rate of selected variants.
To determine if this system could further corroborate observations from previous literature, the well-studied EPSPS mutants T102I and P106S, and the combined double mutant TIPS (T102I-P106S) were generated and complemented into this yeast system. These mutations were reported to result in varying degrees of glyphosate resistance.
Having established low copy number and weak promoter expression of EPSPS variants, it was sought to recharacterize phenotypes under field conditions that are used in planta. […] It has been reported previously that under standard glyphosate foliar application, 0.3 mM or more of glyphosate (gly) can accumulate in a plant's root nodules and meristems. […] These trends support reported literature of mutants P106S and TIPS grown in various plant hosts. As a result, the present synthetic yeast model system closely resembles in planta observations and thus can be used to select for dual-trait EPSPS variants aimed at both enzymatic efficiency and glyphosate resistance.
Select mutants isolated from the final directed evolution campaign with the improved selection strategy were further evaluated in assorted glyphosate concentrations to determine growth characteristics. Mutants isolated from an EPSPS background were evaluated in media containing 0 mM and 0.25 mM glyphosate with the latter being the concentration at which wild-type EPSPS cannot grow after 100 hours. […] The non-glyphosate mono selection highlighted in blue represents mutations resulting from 5 subcultures in 0 mM glyphosate. The low glyphosate dual selection highlighted in light green represents mutants resulting from an additional subculture into 0.5 mM glyphosate. Lastly, the high glyphosate dual selection highlighted in dark green represent mutations isolated after subcultures in increasing levels of glyphosate, up to 10 mM.

For assay [3], the system named is transgenic maize plants. The assay is described as follows: Maize transformation with glyphosate selection, plantlet recovery and quality checks. The assay is classed as in vivo, Zea mays. Conditions: for Number of young plants passing quality control checks: in vivo; for Number of plantlets generated: under glyphosate selection, same amount of starting material. The source says:
Maize was used as a model system to test the functionality of the EPSPS variants because of detailed previous characterization of glyphosate tolerance in maize and a suitable transgenic plant generation protocol that relies on glyphosate. Plant transformation vectors were generated in which the native maize EPSPS sequence was used, which includes the native gene promoter elements, the native introns and exons and the native 3′ untranslated region and introduced mutations that corresponded to each of the selected amino acid changes. The native sequence was used to mimic as closely as possible how the selected EPSPS variants would perform if the variants were introduced directly in the genome without the help of strong expression elements. The following variants were selected for testing in a transgenic maize system: TIPS (as a control); TIPS-P126S-M217L-K296R; TIPS-P126S-K296R; T102I-P126S-K296R (where only the T102I change is present); P106S-P126S-K296R (where only the P106S change is present); and P126S-K296R (where neither of the TIPS changes are present).
Transgenic maize plants that expressed each of the six EPSPS variants were generated to determine if the variants conferred glyphosate tolerance to plants. The full DNA sequence encoding TIPS EPSPS (SEQ ID NO:1) was cloned from maize genomic DNA. In this sequence, the promoter and 5′ UTR are nucleotides 1:2556; the chloroplast transit peptide sequence is nucleotides 2557:2742; EXON 1 is nucleotides 2743:2856; INTRON 1 is nucleotides 2857:3384; EXON 2 is nucleotides 3385:3626; INTRON 2 is nucleotides 3627:3725; EXON 3 is nucleotides 3726:3879; INTRON 3 is nucleotides 3880:4152; EXON 4 is nucleotides 4153:4367; INTRON 4 is nucleotides 4368:4877; EXON 5 is nucleotides 4878:4995; INTRON 5 is nucleotides 4996:5155; EXON 6 is nucleotides 5156:5366; INTRON 6 is nucleotides 5367:5446; EXON 7 is nucleotides 5447:5508; INTRON 7 is nucleotides 5509:5617; EXON 8 is nucleotides 5618:5836; and the 3′ UTR is nucleotides 5837:6368. Mutations were then introduced into the EPSPS coding sequence in order to produce each of the six EPSPS variants to be tested. These mutated full genomic DNA sequences were then each cloned as a single expression cassette into plant transformation vectors.
Agrobacterium tumefaciens-mediated plant transformation was performed using methods known in the art. Glyphosate selection was used to select for transgenic events containing the transgene of interest and further screened for only those EPSPS variants that provided effective glyphosate tolerance in a plant cell. While all six EPSPS variants began the transformation process with the same amount of starting maize cellular material, there were differences in the number of small plantlets recovered that were capable of being transplanted to greenhouse soil media (Table 4). Transgenic events were further analyzed to determine transgene copy number. Healthy events with single copy of the transgene of interest were grown in the greenhouse soil media. Only three of the six EPSPS variants had more than one plant surviving. Up to twenty-five of these developing R0 plants were transplanted to larger pots and allowed to grow to maturity for seed collection in the greenhouse.

Assay [4] relates to transgenic maize plants. Kind of assay: Greenhouse glyphosate spray test on hybrid (hemizygous) transgenic maize. The assay is classed as in vivo, Zea mays. The procedure: To further evaluate the performance of EPSPS variants for glyphosate tolerance, transgenic maize plants comprising a single copy of the transgene encoding the EPSPS variants TIPS-P126S-M217L-K296R or TIPS-P126S-K296R were grown to maturity. Homozygous transgenic plants were crossed with an inbred line to produce hybrid seeds.
Plants from the hybrid seeds (hemizygous for the transgenes) of two independent transformation events for each of the two variants were grown in the greenhouse for glyphosate spray test. Roundup® PowerMax3, a commercial formulation of glyphosate, was applied at the third leaf stage at two rates: 1120 gram/hectare (1× the field rate) and 2240 gram/hectare (2× the field rate). The controls included an untreated untransformed control without glyphosate treatment, an untransformed control sprayed with glyphosate, and a TIPS positive control both sprayed with glyphosate. Glyphosate herbicide injury (plant stunting, chlorosis, necrosis, malformation, and death) was assessed by visual inspection of the plants 18 days after herbicide treatment. Herbicide injury rate was presented on a scale of 0 to 100 with “0” being no visible crop injury and “100” being complete crop injury or death.

From patent publication US20260275304A1, “METHODS AND COMPOSITIONS FOR GLYPHOSATE TOLERANCE IN PLANTS” (Monsanto Technology LLC, priority 2023, published 2026) come the findings set out here.

On to `O=C(O)CNCP(=O)(O)O` [glyphosate, N-phosphonomethylglycine], for which, in assay [1], the growth inhibition entry is listed as “slight growth inhibition”.

B1: TIPS-P126S-M217L-K296R: maize EPSPS variant, SEQ ID NO:10 (protein)
chain: AGAEEIVLQPIKEISGTVKLPGSKSLSNRILLLAALSEGTTVVDNLLNSEDVHYMLGALRTLGLSVEADKAAKRAVVVGCGGKFPVEDSKEEVQLFLGNAGIAMRSLTAAVTAAGGNATYVLDGVSRMRERPIGDLVVGLKQLGADVDCFLGTDCPPVRVNGIGGLPGGKVKLSGSISSQYLSALLMAAPLALGDVEIEIIDKLISIPYVEMTLRLLERFGVKAEHSDSWDRFYIKGGQKYKSPKNAYVEGDASSASYFLAGAAITGGTVTVEGCGTTSLQGDVKFAEVLEMMGARVTWTETSVTVTGPPREPFGRKHLKAIDVNMNKMPDVAMTLAVVALFADGPTAIRDVASWRVKETERMVAIRTELTKLGASVEEGPDYCIITPPEKLNVTAIDTYDDHRMAMAFSLAACAEVPVAIRDPGCTRKTFPDYFDVLSTFVKN
modifications: Zea mays
On to B1, for which the “growth in yeast minimal media without glyphosate” value in assay [2] (0 mM glyphosate) is “high growth in non-glyphosate”. Further, the “glyphosate tolerance in synthetic yeast host” value in assay [2] was “high glyphosate tolerance”; in assay [2] (listed as TIPS P126S/M217L/K296R) it was “high glyphosate tolerance (even higher than TIPS)”. Besides, the “Number of young plants passing quality control checks” value in the assay with transgenic maize plants [3] is listed as 13. Besides, in the assay with transgenic maize plants [3], the “Number of plantlets generated” value is 92. Also, the tolerance to glyphosate result with transgenic maize plants [4] (2× field rate) is reported as “full tolerance”; in the assay on transgenic maize plants [4] (equivalent 1× field dose) it was “excellent tolerance”. Moreover, the “Average Injury At 1120 g/ha” value in the assay on transgenic maize plants [4] (Roundup PowerMax3, 1× field rate, 18 days after treatment, scale of 0 to 100) stood at 0. For the same molecule, the “Average Injury At 2240 g/ha” value in the assay on transgenic maize plants [4] (Roundup PowerMax3, 2× field rate, 18 days after treatment, scale of 0 to 100) is on record as 0.

B2: P106S-P126S-K296R: maize EPSPS variant, SEQ ID NO:13 (protein)
chain: AGAEEIVLQPIKEISGTVKLPGSKSLSNRILLLAALSEGTTVVDNLLNSEDVHYMLGALRTLGLSVEADKAAKRAVVVGCGGKFPVEDSKEEVQLFLGNAGTAMRSLTAAVTAAGGNATYVLDGVSRMRERPIGDLVVGLKQLGADVDCFLGTDCPPVRVNGIGGLPGGKVKLSGSISSQYLSALLMAAPLALGDVEIEIIDKLISIPYVEMTLRLMERFGVKAEHSDSWDRFYIKGGQKYKSPKNAYVEGDASSASYFLAGAAITGGTVTVEGCGTTSLQGDVKFAEVLEMMGARVTWTETSVTVTGPPREPFGRKHLKAIDVNMNKMPDVAMTLAVVALFADGPTAIRDVASWRVKETERMVAIRTELTKLGASVEEGPDYCIITPPEKLNVTAIDTYDDHRMAMAFSLAACAEVPVAIRDPGCTRKTFPDYFDVLSTFVKN
modifications: Zea mays
With B2, in the assay on transgenic maize plants [3], the “Number of young plants passing quality control checks” value was determined as 0 and the “Number of plantlets generated” value is given as 39.

B3: P126S-K296R: maize EPSPS variant, SEQ ID NO:14 (protein)
chain: AGAEEIVLQPIKEISGTVKLPGSKSLSNRILLLAALSEGTTVVDNLLNSEDVHYMLGALRTLGLSVEADKAAKRAVVVGCGGKFPVEDSKEEVQLFLGNAGTAMRPLTAAVTAAGGNATYVLDGVSRMRERPIGDLVVGLKQLGADVDCFLGTDCPPVRVNGIGGLPGGKVKLSGSISSQYLSALLMAAPLALGDVEIEIIDKLISIPYVEMTLRLMERFGVKAEHSDSWDRFYIKGGQKYKSPKNAYVEGDASSASYFLAGAAITGGTVTVEGCGTTSLQGDVKFAEVLEMMGARVTWTETSVTVTGPPREPFGRKHLKAIDVNMNKMPDVAMTLAVVALFADGPTAIRDVASWRVKETERMVAIRTELTKLGASVEEGPDYCIITPPEKLNVTAIDTYDDHRMAMAFSLAACAEVPVAIRDPGCTRKTFPDYFDVLSTFVKN
modifications: Zea mays
Take B3: in the assay on transgenic maize plants [3], the “Number of young plants passing quality control checks” value was 1 and the “Number of plantlets generated” value was 11.
